Article PMC10397247
Each block holds one binder with its values, some of them ahead of it.

What was measured:
[1] = target: T1, 4H3364-bA; assay: two-hybrid library CCNG1;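 also: natural log of median RNA to DNA barcode read ratio; higher means stronger binding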
T1 chain: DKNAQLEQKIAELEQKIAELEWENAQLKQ

[2] = target: T2, 4H2931-bA; assay: two-hybrid library CCNG1;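 also: natural log of median RNA to DNA barcode read ratio; higher means stronger binding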
T2 chain: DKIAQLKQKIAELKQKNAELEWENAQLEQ

[3] = target: T3, 4H730-bA; assay: two-hybrid library CCNG1;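 also: natural log of median RNA to DNA barcode read ratio; higher means stronger binding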
T3 chain: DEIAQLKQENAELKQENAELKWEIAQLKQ

[4] = target: T4, 4H3381-bA; assay: two-hybrid library CCNG1;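 also: natural log of median RNA to DNA barcode read ratio; higher means stronger binding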
T4 chain: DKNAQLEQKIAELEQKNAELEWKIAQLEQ

[5] = target: T5, 4H949-bA; assay: two-hybrid library CCNG1;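 also: natural log of median RNA to DNA barcode read ratio; higher means stronger binding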
T5 chain: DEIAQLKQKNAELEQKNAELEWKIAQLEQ

[6] = target: T6, 4H3297-bA; assay: two-hybrid library CCNG1;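 also: natural log of median RNA to DNA barcode read ratio; higher means stronger binding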
T6 chain: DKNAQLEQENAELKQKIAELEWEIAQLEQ

[7] = target: T7, 4H3041-bA; assay: two-hybrid library CCNG1
T7 chain: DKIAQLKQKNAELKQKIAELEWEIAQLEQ

[8] = target: T8, 4H349-bA; assay: two-hybrid library CCNG1
T8 chain: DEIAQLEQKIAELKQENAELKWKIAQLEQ

[9] = target: T9, 4H3497-bA; assay: two-hybrid library CCNG1
T9 chain: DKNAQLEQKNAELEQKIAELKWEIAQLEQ

[10] = target: T10, 4H56-bA; assay: two-hybrid library CCNG1
T10 chain: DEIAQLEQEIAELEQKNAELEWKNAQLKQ

[11] = target: T11, P11A; assay: two-hybrid library CCNG1
T11 chain: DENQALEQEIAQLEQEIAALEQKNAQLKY

[12] = target: T12, 4H932-bA; assay: two-hybrid library CCNG1
T12 chain: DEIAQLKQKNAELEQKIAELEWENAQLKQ

[13] = target: T13, 4H796-bA; assay: two-hybrid library CCNG1
T13 chain: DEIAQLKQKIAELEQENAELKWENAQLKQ

[14] = target: T14, 4H3381-bH; assay: two-hybrid library CCNG1
T14 chain: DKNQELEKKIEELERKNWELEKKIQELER

[15] = target: T15, 4H971-AA; assay: two-hybrid library CCmax; conditions: mean of both orientations
T15 chain: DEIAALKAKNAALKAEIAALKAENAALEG

[16] = target: T16, 4H497-AA; assay: two-hybrid library CCmax; conditions: mean of both orientations
T16 chain: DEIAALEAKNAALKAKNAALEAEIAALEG

[17] = target: T17, 4H3591-AA; assay: two-hybrid library CCmax
T17 chain: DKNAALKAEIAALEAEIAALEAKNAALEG

[18] = target: T18, 4H391-AA; assay: two-hybrid library CCmax; conditions: mean of both orientations
T18 chain: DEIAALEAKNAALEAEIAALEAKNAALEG

[19] = target: T19, 4H3066-AA; assay: two-hybrid library CCmax; conditions: mean of both orientations
T19 chain: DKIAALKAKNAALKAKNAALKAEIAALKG

[20] = target: T20, 4H2248-AA; assay: two-hybrid library CCmax; conditions: mean of both orientations
T20 chain: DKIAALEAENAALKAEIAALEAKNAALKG

[21] = target: T21, 4H478-AA; assay: two-hybrid library CCmax; conditions: mean of both orientations
T21 chain: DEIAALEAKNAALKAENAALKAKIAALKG

[22] = target: T22, 4H2948-AA; assay: two-hybrid library CCmax; conditions: mean of both orientations
T22 chain: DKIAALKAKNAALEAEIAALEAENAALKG

[23] = target: T23, 4H2283-AA; assay: two-hybrid library CCmax; conditions: mean of both orientations
T23 chain: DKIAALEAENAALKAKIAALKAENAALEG

[24] = target: T24, 4H1109-AA; assay: two-hybrid library CCmax
T24 chain: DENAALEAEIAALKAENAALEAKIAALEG

[25] = target: T25, 4H3628-AA; assay: two-hybrid library CCmax; conditions: mean of both orientations
T25 chain: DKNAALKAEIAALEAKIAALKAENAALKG

[26] = target: T26, 4H3709-AA; assay: two-hybrid library CCmax; conditions: mean of both orientations
T26 chain: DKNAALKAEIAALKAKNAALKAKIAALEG

[27] = target: T27, 4H146-AA; assay: two-hybrid library CCmax; conditions: mean of both orientations
T27 chain: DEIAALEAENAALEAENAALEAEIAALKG

[28] = target: T28, 4H2713-AA; assay: two-hybrid library CCmax; conditions: mean of both orientations
T28 chain: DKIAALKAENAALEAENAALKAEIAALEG

[29] = target: T29, 4H3121-AA; assay: two-hybrid library CCmax; conditions: mean of both orientations
T29 chain: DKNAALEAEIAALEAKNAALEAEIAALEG

[30] = target: T30, 4H1146-AA; assay: two-hybrid library CCmax; conditions: mean of both orientations
T30 chain: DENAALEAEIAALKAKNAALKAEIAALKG

[31] = target: T31, 4H3666-AA; assay: two-hybrid library CCmax; conditions: mean of both orientations
T31 chain: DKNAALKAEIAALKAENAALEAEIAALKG

[32] = target: T32, 4H428-AA; assay: two-hybrid library CCmax; conditions: mean of both orientations
T32 chain: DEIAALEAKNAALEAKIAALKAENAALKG

[33] = target: T33, 4H1809-AA; assay: two-hybrid library CCmax; conditions: mean of both orientations
T33 chain: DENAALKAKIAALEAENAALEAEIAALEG

[34] = target: T34, 4H3939-AA; assay: two-hybrid library CCmax; conditions: mean of both orientations
T34 chain: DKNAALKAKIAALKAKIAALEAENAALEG

[35] = target: T35, 4H3446-AA; assay: two-hybrid library CCmax; conditions: mean of both orientations
T35 chain: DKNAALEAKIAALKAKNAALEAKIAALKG

[36] = target: T36, 4H2742-AA; assay: two-hybrid library CCmax; conditions: mean of both orientations
T36 chain: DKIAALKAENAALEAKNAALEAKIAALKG

[37] = target: T37, 4H1348-AA; assay: two-hybrid library CCmax; conditions: mean of both orientations
T37 chain: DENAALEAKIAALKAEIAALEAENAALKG

[38] = target: T38, 4H675-AA; assay: two-hybrid library CCmax; conditions: mean of both orientations
T38 chain: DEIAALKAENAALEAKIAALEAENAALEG

[39] = target: T39, 4H1391-AA; assay: two-hybrid library CCmax; conditions: mean of both orientations
T39 chain: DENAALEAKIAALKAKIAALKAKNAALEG

[40] = target: T40, 4H189-AA; assay: two-hybrid library CCmax; conditions: mean of both orientations
T40 chain: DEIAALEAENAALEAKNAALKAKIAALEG

[41] = target: T41, 4H3102-AA; assay: two-hybrid library CCmax; conditions: mean of both orientations
T41 chain: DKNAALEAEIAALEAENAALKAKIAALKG

[42] = target: T42, 4H3029-AA; assay: two-hybrid library CCmax; conditions: mean of both orientations
T42 chain: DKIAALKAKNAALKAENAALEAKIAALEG

[43] = target: T43, 4H3920-AA; assay: two-hybrid library CCmax; conditions: mean of both orientations
T43 chain: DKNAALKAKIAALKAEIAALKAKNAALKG

[44] = target: T44, 4H1854-AA; assay: two-hybrid library CCmax; conditions: mean of both orientations
T44 chain: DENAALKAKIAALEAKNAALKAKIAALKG

[45] = target: T45, 4H2991-AA; assay: two-hybrid library CCmax; conditions: mean of both orientations
T45 chain: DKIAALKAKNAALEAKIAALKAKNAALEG

[46] = target: T46, 4H3417-AA; assay: two-hybrid library CCmax; conditions: mean of both orientations
T46 chain: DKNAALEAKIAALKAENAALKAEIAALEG

[47] = target: T47, 4H656-AA; assay: two-hybrid library CCmax; conditions: mean of both orientations
T47 chain: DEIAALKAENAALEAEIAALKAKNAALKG

[48] = target: T48, P8mS; assay: two-hybrid library CCNG1
T48 chain: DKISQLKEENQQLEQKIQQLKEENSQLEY

[49] = target: T49, P9mS; assay: two-hybrid library CCNG1
T49 chain: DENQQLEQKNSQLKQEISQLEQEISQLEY

[50] = target: T50, P5mS; assay: two-hybrid library CCNG1
T50 chain: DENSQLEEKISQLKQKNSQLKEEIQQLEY

[51] = target: T51, P3mS; assay: two-hybrid library CCNG1
T51 chain: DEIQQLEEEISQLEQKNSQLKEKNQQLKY

[52] = target: T52, P6mS; assay: two-hybrid library CCNG1
T52 chain: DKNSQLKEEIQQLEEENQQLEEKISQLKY

[53] = target: T53, P7mS; assay: two-hybrid library CCNG1
T53 chain: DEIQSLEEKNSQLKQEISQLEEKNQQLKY

[54] = target: T54, O13; assay: two-hybrid library CC0; conditions: mean of both orientations
T54 chain: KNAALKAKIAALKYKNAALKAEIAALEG

[55] = target: T55, O2; assay: two-hybrid library CC0; conditions: mean of both orientations
T55 chain: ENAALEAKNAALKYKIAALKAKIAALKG

[56] = target: T56, O5; assay: two-hybrid library CC0; conditions: mean of both orientations
T56 chain: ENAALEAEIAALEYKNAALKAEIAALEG

[57] = target: T57, O14; assay: two-hybrid library CC0; conditions: mean of both orientations
T57 chain: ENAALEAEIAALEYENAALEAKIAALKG

[58] = target: T58, O7; assay: two-hybrid library CC0; conditions: mean of both orientations
T58 chain: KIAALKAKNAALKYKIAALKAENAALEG

[59] = target: T59, O16; assay: two-hybrid library CC0; conditions: mean of both orientations
T59 chain: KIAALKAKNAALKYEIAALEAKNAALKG

[60] = target: T60, O6; assay: two-hybrid library CC0; conditions: mean of both orientations
T60 chain: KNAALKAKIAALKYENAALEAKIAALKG

[61] = target: T61, O4; assay: two-hybrid library CC0; conditions: mean of both orientations
T61 chain: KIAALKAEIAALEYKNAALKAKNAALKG

[62] = target: T62, O12; assay: two-hybrid library CC0; conditions: mean of both orientations
T62 chain: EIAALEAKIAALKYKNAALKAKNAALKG

[63] = target: T63, O8; assay: two-hybrid library CC0; conditions: mean of both orientations
T63 chain: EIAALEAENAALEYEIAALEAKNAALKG

[64] = target: T64, O15; assay: two-hybrid library CC0; conditions: mean of both orientations
T64 chain: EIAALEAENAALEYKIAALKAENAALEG

[65] = target: T65, O3; assay: two-hybrid library CC0; conditions: mean of both orientations
T65 chain: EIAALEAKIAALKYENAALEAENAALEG

[66] = target: T66, O9; assay: two-hybrid library CC0; conditions: mean of both orientations
T66 chain: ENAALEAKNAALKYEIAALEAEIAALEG

interaction score [1]: -1.11
interaction score [2]: -0.604
interaction score [3]: -1.14
interaction score [4]: -1.36
interaction score [5]: -1.37
interaction score [6]: -0.644
interaction score [7]: -0.32
interaction score [8]: -1.08
interaction score [9]: -1.04
interaction score [10]: 0.684
interaction score [11]: 1.31
interaction score [12]: -1.36
interaction score [13]: -0.693
interaction score [14]: -0.208
Binder: DKIAQLKQKIAELKQKNAELEWENAQLEQ [4H2931-bA]

interaction score [15]: 0.0745
interaction score [16]: -1.77
interaction score [17]: -1.05
interaction score [18]: -1.46
interaction score [19]: -0.41
interaction score [20]: -0.482
interaction score [21]: -1.55
interaction score [22]: -1.16
interaction score [23]: -0.782
interaction score [24]: 0.484
interaction score [25]: -1.06
interaction score [26]: 2.13
interaction score [27]: -1.63
interaction score [28]: -1.49
interaction score [29]: -0.8
interaction score [30]: 1.4
interaction score [31]: 0.67
interaction score [32]: -1.21
interaction score [33]: -1.32
interaction score [34]: -1.76
interaction score [35]: -0.106
interaction score [36]: -1.33
interaction score [37]: -1.31
interaction score [38]: -0.943
interaction score [39]: -1.71
interaction score [40]: -0.821
interaction score [41]: 1.35
interaction score [42]: -0.926
interaction score [43]: -1.35
interaction score [44]: 1.5
interaction score [45]: -0.637
interaction score [46]: 0.592
interaction score [47]: -1.33
Binder: DENAALEAEIAALKAENAALEAKIAALEG [4H1109-AA]

interaction score [48]: -1.66
interaction score [49]: -0.496
interaction score [50]: -0.969
interaction score [51]: -1.02
interaction score [52]: -0.88
interaction score [53]: -1.59
Binder: DEIQQLEEEISQLEQKNSQLKEKNQQLKY [P3mS]

Binder: EIAALEAKIAALKYKNAALKAKNAALKG [O12]
interaction score [54]: -2.79
interaction score [55]: -2.79
interaction score [56]: -2.71
interaction score [57]: -2.03
interaction score [58]: -2.84
interaction score [59]: -2.78
interaction score [60]: -2.7
interaction score [61]: -2.22
interaction score [62]: -2.79
interaction score [63]: -2.29
interaction score [64]: -2.78
interaction score [65]: 0.0458
interaction score [66]: -2.71
